Measurements taken from patent US10975360B2, “Process for the modification of alkanes, fatty acids and fatty alcohols” (priority 2016, dated 2021).

B1: CYP505Ak: CYP505 cytochrome P450 monooxygenase from Aspergillus kawachii, SEQ ID No 2 (protein)
chain: MRDAERIPGPTPLPVVGNLFDIDLEHVLQSVIGLANKYGPLFQITINGEKQIFATSQALVDELCDESRFHKAVASGLENLRMLAHDGLFTAYHGERGWGIAHRILVPAFGPLRIQSMFDDMGDLAQQLCLKWARQGASNSINITDDFTRLTLDTIALCTMDFRLNSFYNNDTMHPFVESMLYVLREADVQSALPGIANSVRIMAHRRMLKNIEAMRTIARDIIHDRRKKENPADDLLNTLLNGRDPVTGEGMSDESIIDNVITFLVAGHETTSGLLSFTFYYLVQHPDILKKAQKEVDETVGQAQISVQHLAELPYIDAILKESLRMMPTAPGFTVTPKKAETLGGKWLLNAGQPINVLLPACLRDRSIFGPNADEFSPGRMLAENFSKLPPNSWKPFGNGERSCIGRAFAWQEAQLVVAMILQNFDLVPDDPSYTLRIKETLTIKPDGFRVRATLRHRQTATGLFQHTLSARNDTSLASSSAHFIKKSEDQAPAGGRPICFFYGSNSGTCKALAHRLASDLMPYGFTDQKLAVLDTAVDNLPRDQPVIILTTTYDGQPTDDAKKFVAWLESGKVPALQGISYAVFGCGHHDWTQTFYRIPTLIDELMHKAGATRLAPRGTANAAVSDLFSDLEAWEETSLLPALRETFLLSSSSDLEPLNLHQLQISLSKPRRIDLHKDLMEARVTTVRILTNPDTPEKRHIEFRFQGDTTLRPGDHVNVLPVNPPSTVLRVLAQFNLAPDYSITINSFNTLGLPQATPVSASELFSAYVELSQPATRNNLRILAATAQSDEDKQELIHLQDSYDSLVRDKRVSVLDLLEQFPSVSLPIAAFISMLPALRLRTYSLSLAPSFKPSHGSLTFSVVNEPARNGNRRYLGVGSNYLASLTPGSILYLSPRPAKEAFHLPVDQSRIPIIMICAGSGLAPFLSFIQDRMIWQQQDKPLARALLFFGCGGRFLDDLYHEELSEFEAAGVVDVRRAYSKVLDYDMARGCKYVQDRLVAEANAIRHLWAQDATIYVCGSADMAKGVEGVLEKLLGMLPRERYVTEIYQMQTRDNVSEWLI
modifications: Aspergillus niger
B2: CYP505E1: CYP505 cytochrome P450 monooxygenase from Aspergillus niger, SEQ ID No 3 (protein, listed as Aspergillus kawachii)
chain: MKDAERIPGPKPLPVVGNLFDIDPEHSLESIVAFAEKFGPLFQITINGEKQIFATSQALVDELCDELRFHKAVVTGLEILRLLAHDGLFTAYHGERGWGIAHRILVPAFGPLRIRNMLDDMSDVAQQLCLKWARQGGSTSINITEDFTRLTLDTIALCTMGFRLNSFYNNETMHPFVQSMLYVLREADIQANLPGIANSIRVSAQRRMHKNIEAMRTMARGIIQERRKNKNPVDDILNTLLNGRDPVTGEGMSDDSIIDNVITFLIAGHETTSGLLSFTFYFLIQHPHILKKAQEEVDETVGLAQISAQHLAELPYIDAILKESLRLMPTAPGFTVTPKKTEVLGGRWMINAGQPVNVLLPACLRDQSVFGPDADEFRPERMLAENFSKLPPNSWKPFGNGERGCIGRAFAWQEAQLVVAMILQTFDLVPDDPSYQLRIKETLTIKPDGFRIRATLRRGQTATGLSRRSMLVARDGSSEESSNHPAEARGDHAPARGQPVSFFYGSNSGTCKALAHQLASNMMSRGYTTQKLAPLDNAVDNLPRDQPVIILTTTYDGQPTDNAKKFVAWLETGNVLSLQGISYAVFGCGHHDWTQTFYRIPILIDDLMYKAGATRLAPRGAANAAVSDLFSDLEAWEETSLLPALRENFLPSNSTDFDPLNPHQIQLSLSKPRRVDLHKGLIEAKVTAVRVLTSPDTPEKRHLEFCFQGDLSLRPGDHLNILPVNPPSTVSRVLAQFNLAPDYNITVNSFNTLGLPQATPVSASELFSSYVELCQPATRNNLKSLIAATQSDTVKQELNRLYDSYEFIVRDKRVSVLDLLEQFPSISLPIAAFISMLPALRVRTYSLSMAPAFKPSHSSLTFSVINEPAWRGSGQHLGVASNYLASLTSGSIFYFSPRPAKETFHLPKDPSRTPIIMICAGSGLAPFLSFIQDRMVLKQQNKPLAKAFLFFGCRGRSLDDLYHEELSEYEAAGVVEVRRAYSKTPEFDIAKGCRYVQHRLVTEGQAILSLWAQNAIIYVCGSTSMAKGAEAVLQNMLGPLPKERYVTEIF
B3: CYP505Pe: CYP505 cytochrome P450 monooxygenase from Penicillium expansum, SEQ ID No 4 (protein, listed as Penicillium expansum)
chain: MKDMESIPGPKPLPVVGNLFDIDLENGLQSIIKMAHEFGPLFQITINGQKQIFATSQALVDELCDETRFHKAVMGGIQKLRMLAKDGLFTAYHGERGWGIAHRILMPAFGPLRIRDMFEDMSDVAQQLCFKWARQGSSTSINICDDFTRLTLDTIALCTMGFRLNSYYNSNALHPFIESMLYVLKEAELQSTLPGVANCMRVKAQRRMSKHIDAMRSMARNLIEERRAKPEPVDDLLNTLLNGRDPITGEGMSDDLIISNIITFLIAGHETTSGLLSFTFYYLLQNQDVLERARNEVDEVTGVGPITVQHLAKLPYIDAIMKESLRLMPTAPAFTVTPQKPEVLGGKWMINTGDSVNLLLPVCLRDETVFGPDAGEFRPNRMLEENFSKLPPNSWKPFGNGERGCIGRAFAWQEAQLVVALVLRTFDLAAEDPYYKLRIKETLTIKPDGFRIRATLRHGKSATALSQNNISVGAAASPASSTYLAGNENGRDAAGGQPVSFFYGSNSGTCKALTHRLASTMMTRGFTDQNIAPLDSAVDNLPRDQPTIIITTTYDGQPTDDAKKFVAWLESGNSPSLQGVSYAVFGCGHQDWTKTFYRIPILIDALMYKAGATRLATRGAANAAISDLFSDLEVWEETNLLPGLRESFNPPNNSNFVPLEPHQLQISINKPTRVGMHRDLIEAKVTAIRTLTSPGAPEKRHLEFCIPGETTLRPGDHLNILPVNPPSTVSRALARFNLAPDHSITFESSNALDLPQATPVSAAELFSSYLELSQPATRNNLKELASTTPSDGEKQELLHLYDSYDSLIRAKRASVLDLLEQFTSVTLPITTFISMLPALRVRTYSLSMAPSFKPLHYSLTFSVINEPAWNGNGRYLGVASNYLASLNLGSILYISPRPAKDAFHLPTDQSSKPIIMICAGSGLAPFRSFIQDRMLWQQQDKTLAKALLFFGCRSPQLDDLYHDELSQFEAAGVVEVRRAYSKVPNHYLAKGCRYVQHRLLTETETIQDMWAQDAIIYVCGSGNLAKGVKAVLESMLGTLSERYITEIF
B4: CYP505St: CYP505 cytochrome P450 monooxygenase from Setosphaeria turcica, Seq ID 12 in Table 2 (protein, listed as Setosphaeria turcica)
chain: MSAPNRQLVPIPGPSALPIVGNTFDLDLDASIQSLVNMFEEYGPVFQLTIAGHKQIFVGNVQLTNEVCDESRFCKIVFSGLELLRSAVHDGLFTAHEGERNWDIAHRILMPVFGPTKIRGMFDQMNDIAQQLCLKWGRYGPTFPIEVTEDFTRLTLDTIALCAMGYRFNSFYRDNMHPFVDRMNRFLKDTNTQSGLPDLFNSLWLHAKKRNKEDIKAMREFSQEVVDQRRQNPVDADDLLNALLHQTDPKTGEGLSDSSIIDNMITFLVAGHETTSGLLSFAFYYMLKNPWAMEKAQQEVDNVIGTERVTVNHLSKLEYLNAILRETLRLMPTAPAFTVGALKDDVIGGKYAVKKGEPINPILQAVHCDKEVYGPDATEWKPERMLEEGFHKLPANSWKPFGNGKRGCIGRAFAWQEALLVVAVLLQSFTFTEDDPSYQLRIREALTIKPDGFKIRATLREHKTTAGMVPESVQSLRQAQKSGKPGNSKSSANESMVGQGNGRSVSIFYGSNSGSCESLANLLASDCAKYGFSVQTTDALDAARENFTSNQIVLIVASTYDGKPADNATEFVNWLKSLTGEPLKGVSYAVFGCGHHDWATTFYKIPILIDELLEQRGAQRVAPRGAANAAVSDLFSDLEKWEESILWPALGLTPALLESQGDTQPRLTISFQRPYTQRKEFLEATVTSASELTTSASPSRKCHMELQLPQDMTYNTGDYLAVLPLNPLSNVQRALSRFHLAWDSVLVIEATGPTQLPTATPISVADLFGAYVELSQPATPRNIRALAGAASDEPTKQALLKLAEDDFATQVRDKRLSVLDLLGQYESVALPVEAFIEMLLPLRPRTYSISSAPQWNPSHASITWSIIDTVSWSGHGRFLGVASNHLYDLSPGAVVRVSVRRSNPAFHPPQDPNSYPIIMIASGSGLAPFRGFIQERALQQKAGMTLAPALLFFGCRGRDDDLHRAEMDDFEKSGVVRVMRAYSKAPNEPDAFGCAYIQERVWSERKEFRELWNRGATVFVCGGTKMSEAIKDVFIKIAYGNAGQDDNKSSRDWFASLDPHRYVAEVFN

What was measured:
[1] = format: cell-based, P. pastoris
Procedure: (§1) Precultures of P. pastoris transformants were prepared in buffered complex glycerol media (BMGY). BMGY contained: 10 g/l yeast extract, 20 g/l peptone, 3.4 g/l yeast nitrogen base, 10 g/l ammonium sulfate, 100 mM potassium phosphate (pH 6), 0.4 mg/l biotin and 1% (v/v) glycerol. Erlenmeyer flasks (500 ml) containing 50 ml BMGY media were inoculated with single colonies of 24 h old YPD-agar cultures of P. pastoris KM71 mut^s3/CYP505E3 and incubated at 30° C. and 225 rpm for 24 h. The cultures were harvested using pre-weighed centrifuge tubes at 3000 g for 5 min and stored on ice until further use.
(§2) The main cultures for expression were prepared in buffered complex methanol media (BMMY) containing 10 g/l yeast extract, 20 g/l peptone, 3.4 g/l yeast nitrogen base, 10 g/l ammonium sulfate, 100 mM potassium phosphate (pH 6), 0.4 mg/l biotin and 0.5 or 1% (v/v) methanol. Harvested cells from precultures were resuspended in BMMY media to final concentration of 1 g WC per 40 ml (appx. 25 g/l). The resuspended cultures (100 ml) were transferred to 500 ml Erlenmeyer flasks and incubated at 25° C. and 225 rpm for 24 h. The cultures were then harvested at 3000 g for 5 min using pre-weighed centrifuge tubes.
(§3) Different transformants of Pichia pastoris KM71 harbouring the CYP505 genes for SEQ ID Nos 1 to 7 and 9 to 12 were grown and harvested as described above. The harvested cells were resuspended to give 1 g wet cell weight in 40 ml MOPS buffer (200 mM, 100 mM glucose, 100 mM glycerol, pH 8) and 1 ml aliquots of these cell suspensions were transferred to 40 ml amber vials. Dodecane, 1-dodecanol and 1-tetradecanol were added neat to these cell suspensions to give final concentrations of 200 mM in the case of the alcohols and 1 M in the case of dodecane while in the case of dodecanoic acid 20 μl of a 500 mM stock solution (in DMSO) was added to give a final concentration of 10 mM. Transformants harbouring the CYP505 genes for SEQ ID Nos 1 to 4 were tested for the biotransformation of 1-dodecanol, 1-tetradecanol, dodecanoic acid, tetradecanoic acid and dodecane, while those harbouring the CYP505 genes for SEQ ID Nos 5 to 7 and 9 to 12 were only tested for the biotransformation of 1-dodecanol and dodecanoic acid. The biotransformations were incubated at 25° C. and 225 rpm for 24 h. Extractions were performed using ethyl acetate (500 μl×2). The extracts were analyzed using GC/MS.

[2] = Whole cell biotransformation of dodecane by CYP505s expressed in P. pastoris; format: cell-based; details: whole cells of P. pastoris; for products produced from dodecane (GC-MS): 1 M dodecane, 24 h; for ω-7 hydroxylase activity C12alk: C12 alkane, GC-MS peak height
Procedure: as §1, §2, §3

Molecule	products produced from tetradecanoic acid (GC-MS) [1]	products produced from dodecane (GC-MS) [2]	ω-7 hydroxylase activity C12alk [2]	ω-7 hydroxylase activity C14o [1]	ω-7 hydroxylase activity C12FA [1]	ω-7 hydroxylase activity C12ol [1]
B1	only 7-hydroxy tetradecanoic acid	5-dodecanol	++ (++ 0.1 million < RA < 1 million)			
B2	only 7-hydroxy tetradecanoic acid	5-dodecanol	+ (+ − 0.01 million < RA < 0.1 million)	−		
B3	only 7-hydroxy tetradecanoic acid	5-dodecanol	++ (++ 0.1 million < RA < 1 million)	−		
B4					−	−
